In patent publication US20130005646A1 (Novo Nordisk, published 2013):
Starred links: 1 amine or outer side, 2 acyl side, 3 side chain; linkers in the order of their positions; H or OH if unused. Positions of bridges follow the written chain, without caps; N, C: chain ends. *: point of attachment. C20 diacid = O=C(O)CCCCCCCCCCCCCCCCCCC(=O)*; γGlu = O=C(O)[C@H](CCC(=O)[*:2])N[*:1]

T1: human amylin 3(a) receptor (human calcitonin receptor + RAMP-3) (human, UniProt P30988 25-474; O60896 24-148)
T1 sequence (looked up) 1: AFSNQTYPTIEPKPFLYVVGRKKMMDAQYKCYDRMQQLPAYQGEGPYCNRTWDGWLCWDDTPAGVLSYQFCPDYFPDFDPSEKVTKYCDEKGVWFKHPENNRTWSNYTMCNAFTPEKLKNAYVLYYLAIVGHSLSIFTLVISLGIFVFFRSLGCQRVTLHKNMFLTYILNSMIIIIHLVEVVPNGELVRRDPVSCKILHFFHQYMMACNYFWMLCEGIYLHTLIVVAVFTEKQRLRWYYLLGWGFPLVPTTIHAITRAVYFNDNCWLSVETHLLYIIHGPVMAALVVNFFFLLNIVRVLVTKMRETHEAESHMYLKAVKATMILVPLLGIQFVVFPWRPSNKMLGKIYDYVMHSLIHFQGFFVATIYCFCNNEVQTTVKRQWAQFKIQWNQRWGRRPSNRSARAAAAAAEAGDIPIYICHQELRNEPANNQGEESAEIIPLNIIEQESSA
T1 sequence (looked up) 2: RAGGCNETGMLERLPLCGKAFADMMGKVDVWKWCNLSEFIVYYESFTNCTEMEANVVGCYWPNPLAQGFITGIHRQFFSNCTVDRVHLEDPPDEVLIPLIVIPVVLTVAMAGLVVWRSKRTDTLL

T2: human calcitonin (a) receptor (human, UniProt P30988 25-474)
T2 sequence (looked up): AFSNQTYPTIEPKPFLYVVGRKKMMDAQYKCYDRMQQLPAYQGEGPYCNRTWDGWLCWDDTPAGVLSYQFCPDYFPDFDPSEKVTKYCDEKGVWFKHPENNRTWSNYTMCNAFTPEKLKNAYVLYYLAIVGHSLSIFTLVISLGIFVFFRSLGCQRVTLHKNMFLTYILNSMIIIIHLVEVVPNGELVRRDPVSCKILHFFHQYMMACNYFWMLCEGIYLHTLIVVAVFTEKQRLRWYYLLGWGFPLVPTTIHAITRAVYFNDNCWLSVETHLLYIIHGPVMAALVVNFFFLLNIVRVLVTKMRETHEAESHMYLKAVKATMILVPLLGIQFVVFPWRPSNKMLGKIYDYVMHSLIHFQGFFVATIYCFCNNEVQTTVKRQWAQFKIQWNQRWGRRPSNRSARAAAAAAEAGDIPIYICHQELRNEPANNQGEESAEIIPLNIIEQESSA


Legend:
[1] = molecular target: T1, human amylin 3(a) receptor (human …); experiment: cell-based or functional assay
[2] = molecular target: T2, human calcitonin (a) receptor; experiment: cell-based or functional assay

Binder | Amylin receptor human EC50 [1] [nM] | CTa receptor human EC50 [2] [nM]
{C20 diacid-γGlu}-HHHCNTATCATQRLAEFLHHSSNNFGPILPHTNVGSHTY-NH2 (disulfide 4-9; SMILES CC[C@H](C)[C@H](NC(=O)[C@@H]1CCCN1C(=O)CNC(=O)[C@H](Cc1ccccc1)NC(=O)[C@H](CC(N)=O)NC(=O)[C@H](CC(N)=O)NC(=O)[C@H](CO)NC(=O)[C@H](CO)NC(=O)[C@H](Cc1c[nH]cn1)NC(=O)[C@H](Cc1c[nH]cn1)NC(=O)[C@H](CC(C)C)NC(=O)[C@H](Cc1ccccc1)NC(=O)[C@H](CCC(=O)O)NC(=O)[C@H](C)NC(=O)[C@H](CC(C)C)NC(=O)[C@H](CCCNC(=N)N)NC(=O)[C@H](CCC(N)=O)NC(=O)[C@@H](NC(=O)[C@H](C)NC(=O)[C@@H]1CSSC[C@H](NC(=O)[C@H](Cc2c[nH]cn2)NC(=O)[C@H](Cc2c[nH]cn2)NC(=O)[C@H](Cc2c[nH]cn2)NC(=O)CC[C@H](NC(=O)CCCCCCCCCCCCCCCCCCC(=O)O)C(=O)O)C(=O)N[C@@H](CC(N)=O)C(=O)N[C@@H]([C@@H](C)O)C(=O)N[C@@H](C)C(=O)N[C@@H]([C@@H](C)O)C(=O)N1)[C@@H](C)O)C(=O)N[C@@H](CC(C)C)C(=O)N1CCC[C@H]1C(=O)N[C@@H](Cc1c[nH]cn1)C(=O)N[C@H](C(=O)N[C@@H](CC(N)=O)C(=O)N[C@H](C(=O)NCC(=O)N[C@@H](CO)C(=O)N[C@@H](Cc1c[nH]cn1)C(=O)N[C@H](C(=O)N[C@@H](Cc1ccc(O)cc1)C(N)=O)[C@@H](C)O)C(C)C)[C@@H](C)O) | 0.272 | 0.198
{C20 diacid-γGlu}-HHHCHTATCATQRLAEFLHHSSNNFGPILPPTNVGSNTY-NH2 (disulfide 4-9; SMILES CC[C@H](C)[C@H](NC(=O)[C@@H]1CCCN1C(=O)CNC(=O)[C@H](Cc1ccccc1)NC(=O)[C@H](CC(N)=O)NC(=O)[C@H](CC(N)=O)NC(=O)[C@H](CO)NC(=O)[C@H](CO)NC(=O)[C@H](Cc1c[nH]cn1)NC(=O)[C@H](Cc1c[nH]cn1)NC(=O)[C@H](CC(C)C)NC(=O)[C@H](Cc1ccccc1)NC(=O)[C@H](CCC(=O)O)NC(=O)[C@H](C)NC(=O)[C@H](CC(C)C)NC(=O)[C@H](CCCNC(=N)N)NC(=O)[C@H](CCC(N)=O)NC(=O)[C@@H](NC(=O)[C@H](C)NC(=O)[C@@H]1CSSC[C@H](NC(=O)[C@H](Cc2c[nH]cn2)NC(=O)[C@H](Cc2c[nH]cn2)NC(=O)[C@H](Cc2c[nH]cn2)NC(=O)CC[C@H](NC(=O)CCCCCCCCCCCCCCCCCCC(=O)O)C(=O)O)C(=O)N[C@@H](Cc2c[nH]cn2)C(=O)N[C@@H]([C@@H](C)O)C(=O)N[C@@H](C)C(=O)N[C@@H]([C@@H](C)O)C(=O)N1)[C@@H](C)O)C(=O)N[C@@H](CC(C)C)C(=O)N1CCC[C@H]1C(=O)N1CCC[C@H]1C(=O)N[C@H](C(=O)N[C@@H](CC(N)=O)C(=O)N[C@H](C(=O)NCC(=O)N[C@@H](CO)C(=O)N[C@@H](CC(N)=O)C(=O)N[C@H](C(=O)N[C@@H](Cc1ccc(O)cc1)C(N)=O)[C@@H](C)O)C(C)C)[C@@H](C)O) | 0.286 | 0.801
{C20 diacid-γGlu}-HHHCHTATCATQRLAEFLHHSSNNFGPILPHTNVGSHTY-NH2 (disulfide 4-9; SMILES CC[C@H](C)[C@H](NC(=O)[C@@H]1CCCN1C(=O)CNC(=O)[C@H](Cc1ccccc1)NC(=O)[C@H](CC(N)=O)NC(=O)[C@H](CC(N)=O)NC(=O)[C@H](CO)NC(=O)[C@H](CO)NC(=O)[C@H](Cc1c[nH]cn1)NC(=O)[C@H](Cc1c[nH]cn1)NC(=O)[C@H](CC(C)C)NC(=O)[C@H](Cc1ccccc1)NC(=O)[C@H](CCC(=O)O)NC(=O)[C@H](C)NC(=O)[C@H](CC(C)C)NC(=O)[C@H](CCCNC(=N)N)NC(=O)[C@H](CCC(N)=O)NC(=O)[C@@H](NC(=O)[C@H](C)NC(=O)[C@@H]1CSSC[C@H](NC(=O)[C@H](Cc2c[nH]cn2)NC(=O)[C@H](Cc2c[nH]cn2)NC(=O)[C@H](Cc2c[nH]cn2)NC(=O)CC[C@H](NC(=O)CCCCCCCCCCCCCCCCCCC(=O)O)C(=O)O)C(=O)N[C@@H](Cc2c[nH]cn2)C(=O)N[C@@H]([C@@H](C)O)C(=O)N[C@@H](C)C(=O)N[C@@H]([C@@H](C)O)C(=O)N1)[C@@H](C)O)C(=O)N[C@@H](CC(C)C)C(=O)N1CCC[C@H]1C(=O)N[C@@H](Cc1c[nH]cn1)C(=O)N[C@H](C(=O)N[C@@H](CC(N)=O)C(=O)N[C@H](C(=O)NCC(=O)N[C@@H](CO)C(=O)N[C@@H](Cc1c[nH]cn1)C(=O)N[C@H](C(=O)N[C@@H](Cc1ccc(O)cc1)C(N)=O)[C@@H](C)O)C(C)C)[C@@H](C)O) | 1.03 | 0.484

Now from value to binder:

Amylin receptor human EC50 [1] [nM] | CTa receptor human EC50 [2] [nM] | Binder
0.174 | 0.753 | {C20 diacid-γGlu}-ECNTATCATQRLAEFLHRSSNNFGPILPPTNVGSNTY-NH2 (disulfide 2-7; SMILES CC[C@H](C)[C@H](NC(=O)[C@@H]1CCCN1C(=O)CNC(=O)[C@H](Cc1ccccc1)NC(=O)[C@H](CC(N)=O)NC(=O)[C@H](CC(N)=O)NC(=O)[C@H](CO)NC(=O)[C@H](CO)NC(=O)[C@H](CCCNC(=N)N)NC(=O)[C@H](Cc1c[nH]cn1)NC(=O)[C@H](CC(C)C)NC(=O)[C@H](Cc1ccccc1)NC(=O)[C@H](CCC(=O)O)NC(=O)[C@H](C)NC(=O)[C@H](CC(C)C)NC(=O)[C@H](CCCNC(=N)N)NC(=O)[C@H](CCC(N)=O)NC(=O)[C@@H](NC(=O)[C@H](C)NC(=O)[C@@H]1CSSC[C@H](NC(=O)[C@H](CCC(=O)O)NC(=O)CC[C@H](NC(=O)CCCCCCCCCCCCCCCCCCC(=O)O)C(=O)O)C(=O)N[C@@H](CC(N)=O)C(=O)N[C@@H]([C@@H](C)O)C(=O)N[C@@H](C)C(=O)N[C@@H]([C@@H](C)O)C(=O)N1)[C@@H](C)O)C(=O)N[C@@H](CC(C)C)C(=O)N1CCC[C@H]1C(=O)N1CCC[C@H]1C(=O)N[C@H](C(=O)N[C@@H](CC(N)=O)C(=O)N[C@H](C(=O)NCC(=O)N[C@@H](CO)C(=O)N[C@@H](CC(N)=O)C(=O)N[C@H](C(=O)N[C@@H](Cc1ccc(O)cc1)C(N)=O)[C@@H](C)O)C(C)C)[C@@H](C)O) [N-alpha-[(S)-4-Carboxy-4-(19-carboxynonadecanoylamino)butyryl]-[Glu1,Glu14,His17,Arg18]-pramlintide]
0.377 | 0.657 | {C20 diacid-γGlu}-ECNTATCATQRLAEFLHHSSNNFGPILPPTNVGSNTY-NH2 (disulfide 2-7; SMILES CC[C@H](C)[C@H](NC(=O)[C@@H]1CCCN1C(=O)CNC(=O)[C@H](Cc1ccccc1)NC(=O)[C@H](CC(N)=O)NC(=O)[C@H](CC(N)=O)NC(=O)[C@H](CO)NC(=O)[C@H](CO)NC(=O)[C@H](Cc1c[nH]cn1)NC(=O)[C@H](Cc1c[nH]cn1)NC(=O)[C@H](CC(C)C)NC(=O)[C@H](Cc1ccccc1)NC(=O)[C@H](CCC(=O)O)NC(=O)[C@H](C)NC(=O)[C@H](CC(C)C)NC(=O)[C@H](CCCNC(=N)N)NC(=O)[C@H](CCC(N)=O)NC(=O)[C@@H](NC(=O)[C@H](C)NC(=O)[C@@H]1CSSC[C@H](NC(=O)[C@H](CCC(=O)O)NC(=O)CC[C@H](NC(=O)CCCCCCCCCCCCCCCCCCC(=O)O)C(=O)O)C(=O)N[C@@H](CC(N)=O)C(=O)N[C@@H]([C@@H](C)O)C(=O)N[C@@H](C)C(=O)N[C@@H]([C@@H](C)O)C(=O)N1)[C@@H](C)O)C(=O)N[C@@H](CC(C)C)C(=O)N1CCC[C@H]1C(=O)N1CCC[C@H]1C(=O)N[C@H](C(=O)N[C@@H](CC(N)=O)C(=O)N[C@H](C(=O)NCC(=O)N[C@@H](CO)C(=O)N[C@@H](CC(N)=O)C(=O)N[C@H](C(=O)N[C@@H](Cc1ccc(O)cc1)C(N)=O)[C@@H](C)O)C(C)C)[C@@H](C)O) [N-alpha-[(S)-4-Carboxy-4-(19-carboxynonadecanoylamino)butyryl]-[Glu1,Glu14,His17]-pramlintide]
0.179 | 0.259 | {C20 diacid-γGlu}-CNTATCATQRLAEFLHHSSNNFGPILPPTNVGSNTY-NH2 (disulfide 1-6; SMILES CC[C@H](C)[C@H](NC(=O)[C@@H]1CCCN1C(=O)CNC(=O)[C@H](Cc1ccccc1)NC(=O)[C@H](CC(N)=O)NC(=O)[C@H](CC(N)=O)NC(=O)[C@H](CO)NC(=O)[C@H](CO)NC(=O)[C@H](Cc1c[nH]cn1)NC(=O)[C@H](Cc1c[nH]cn1)NC(=O)[C@H](CC(C)C)NC(=O)[C@H](Cc1ccccc1)NC(=O)[C@H](CCC(=O)O)NC(=O)[C@H](C)NC(=O)[C@H](CC(C)C)NC(=O)[C@H](CCCNC(=N)N)NC(=O)[C@H](CCC(N)=O)NC(=O)[C@@H](NC(=O)[C@H](C)NC(=O)[C@@H]1CSSC[C@H](NC(=O)CC[C@H](NC(=O)CCCCCCCCCCCCCCCCCCC(=O)O)C(=O)O)C(=O)N[C@@H](CC(N)=O)C(=O)N[C@@H]([C@@H](C)O)C(=O)N[C@@H](C)C(=O)N[C@@H]([C@@H](C)O)C(=O)N1)[C@@H](C)O)C(=O)N[C@@H](CC(C)C)C(=O)N1CCC[C@H]1C(=O)N1CCC[C@H]1C(=O)N[C@H](C(=O)N[C@@H](CC(N)=O)C(=O)N[C@H](C(=O)NCC(=O)N[C@@H](CO)C(=O)N[C@@H](CC(N)=O)C(=O)N[C@H](C(=O)N[C@@H](Cc1ccc(O)cc1)C(N)=O)[C@@H](C)O)C(C)C)[C@@H](C)O) [N-alpha-[(S)-4-Carboxy-4-(19-carboxynonadecanoylamino)butyryl]-[des1,Glu14,His17]-pramlintide]
